Assay results taken from article PMC8548392, “Miniature type V-F CRISPR-Cas nucleases enable targeted DNA modification in cells” (Nature Communications, 2021).
Numbering of substitutions follows the chain as printed. Names and notes keep the numbering of the source. Blank lines part the entries; values can stand above or below the molecule they belong to.

Tests used:
[1] = target: AsCas12f1 (Acidibacillus sulfuroxidans Cas12f1) (Acidibacillus sulfuroxidans); assay: mass photometry; binary complex with gRNA; 1 µM Cas12f1 protein and 500 nM gRNA in complex assembly buffer (10 mM Tris-HCl pH 7.5, 100 mM NaCl, 1 mM EDTA, 1 mM DTT), 30 min at 37 °C, then diluted 1:10
[2] = target: AsCas12f1 (Acidibacillus sulfuroxidans Cas12f1) (Acidibacillus sulfuroxidans); assay: mass photometry; ternary complex with gRNA and dsDNA target; 200 nM Cas12f1 RNP and 25 nM DNA in binding buffer (40 mM Tris-HAc pH 8.4, 5 mM Mg acetate), 30 min at 45 °C, then diluted 1:10
[3] = target: the molecule itself; assay: mass photometry; binary complex with gRNA; 1 µM Cas12f1 protein and 500 nM gRNA in complex assembly buffer (10 mM Tris-HCl pH 7.5, 100 mM NaCl, 1 mM EDTA, 1 mM DTT), 30 min at 37 °C, then diluted 1:10
dSpCas12f1 [4] = target: T1, dSpCas12f1 (Syntrophomonas palmitatica, UniProt P0DW62 1-497, D228A); assay: mass photometry; binary complex 179 kDa, 2:1 protein:gRNA; EMSA: 40 mM Tris, 20 mM acetic acid pH 8.4, 1 mM EDTA, 0.1 mg/ml BSA, 10% glycerol, 5 mM Mg acetate, 1 nM DNA, 0-250 nM RNP, 30 min at room temperature or as indicated. Mass photometry: binary in 10 mM Tris-HCl pH 7.5, 100 mM NaCl, 1 mM EDTA, 1 mM DTT, 37 C; ternary in 40 mM Tris-acetate pH 8.4, 5 mM Mg acetate, 45 C; details: protein: recombinant; tags: 10xHis-MBP-TEV tag removed; chain copies: 2; single chain, folded
T1 sequence: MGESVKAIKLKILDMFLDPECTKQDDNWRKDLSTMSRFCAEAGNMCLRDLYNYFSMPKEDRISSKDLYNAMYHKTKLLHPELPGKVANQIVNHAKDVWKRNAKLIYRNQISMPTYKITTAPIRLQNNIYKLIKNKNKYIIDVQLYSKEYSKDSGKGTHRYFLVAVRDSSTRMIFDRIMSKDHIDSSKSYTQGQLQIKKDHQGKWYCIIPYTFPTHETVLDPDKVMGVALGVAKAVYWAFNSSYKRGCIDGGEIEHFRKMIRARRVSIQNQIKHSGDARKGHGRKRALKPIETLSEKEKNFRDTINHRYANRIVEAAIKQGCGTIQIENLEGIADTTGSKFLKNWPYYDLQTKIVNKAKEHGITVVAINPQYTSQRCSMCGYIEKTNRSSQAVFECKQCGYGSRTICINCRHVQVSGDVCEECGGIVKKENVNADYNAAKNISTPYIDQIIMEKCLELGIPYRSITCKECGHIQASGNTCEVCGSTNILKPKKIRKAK

dSpCas12f1 [5] = target: T1, dSpCas12f1; assay: mass photometry; ternary 2:1:1, 5 mM Mg2+, incubated at 45 C; EMSA: 40 mM Tris, 20 mM acetic acid pH 8.4, 1 mM EDTA, 0.1 mg/ml BSA, 10% glycerol, 5 mM Mg acetate, 1 nM DNA, 0-250 nM RNP, 30 min at room temperature or as indicated. Mass photometry: binary in 10 mM Tris-HCl pH 7.5, 100 mM NaCl, 1 mM EDTA, 1 mM DTT, 37 C; ternary in 40 mM Tris-acetate pH 8.4, 5 mM Mg acetate, 45 C; details: protein: recombinant; tags: 10xHis-MBP-TEV tag removed; chain copies: 2; label: 32P 5'-end in EMSA; guide RNA + DNA duplex
dSpCas12f1 [6] = target: T1, dSpCas12f1; assay: EMSA; 5 mM Mg2+, room temperature; EMSA: 40 mM Tris, 20 mM acetic acid pH 8.4, 1 mM EDTA, 0.1 mg/ml BSA, 10% glycerol, 5 mM Mg acetate, 1 nM DNA, 0-250 nM RNP, 30 min at room temperature or as indicated. Mass photometry: binary in 10 mM Tris-HCl pH 7.5, 100 mM NaCl, 1 mM EDTA, 1 mM DTT, 37 C; ternary in 40 mM Tris-acetate pH 8.4, 5 mM Mg acetate, 45 C; details: protein: recombinant; tags: 10xHis-MBP-TEV tag removed; chain copies: 2; label: 32P 5'-end; guide RNA + ssDNA
dAsCas12f1 [7] = target: T2, dAsCas12f1 (Acidibacillus sulfuroxidans, UniProt A0A2U3D0N8 1-422, D225A); assay: as above; details: protein: recombinant; tags: 10xHis-MBP-TEV tag removed; chain copies: 2; label: 32P 5'-end; guide RNA + ssDNA
T2 sequence: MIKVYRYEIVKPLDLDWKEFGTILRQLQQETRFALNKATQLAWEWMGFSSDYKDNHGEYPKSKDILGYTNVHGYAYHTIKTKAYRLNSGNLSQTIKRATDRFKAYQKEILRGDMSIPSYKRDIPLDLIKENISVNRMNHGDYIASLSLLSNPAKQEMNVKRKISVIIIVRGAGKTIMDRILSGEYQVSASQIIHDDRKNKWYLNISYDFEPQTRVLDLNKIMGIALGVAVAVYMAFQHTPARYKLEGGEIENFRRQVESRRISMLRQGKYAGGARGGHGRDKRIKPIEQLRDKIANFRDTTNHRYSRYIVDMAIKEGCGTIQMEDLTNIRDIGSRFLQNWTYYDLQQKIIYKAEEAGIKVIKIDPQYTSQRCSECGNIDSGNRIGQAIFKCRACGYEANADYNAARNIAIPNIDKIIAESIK

dAsCas12f1 [8] = target: T2, dAsCas12f1; assay: mass photometry; ternary 2:1:1, 5 mM Mg2+, incubated at 45 C; EMSA: 40 mM Tris, 20 mM acetic acid pH 8.4, 1 mM EDTA, 0.1 mg/ml BSA, 10% glycerol, 5 mM Mg acetate, 1 nM DNA, 0-250 nM RNP, 30 min at room temperature or as indicated. Mass photometry: binary in 10 mM Tris-HCl pH 7.5, 100 mM NaCl, 1 mM EDTA, 1 mM DTT, 37 C; ternary in 40 mM Tris-acetate pH 8.4, 5 mM Mg acetate, 45 C; details: protein: recombinant; tags: 10xHis-MBP-TEV tag removed; chain copies: 2; label: 32P 5'-end in EMSA; guide RNA + DNA duplex

stoichiometry N [1]: 2
stoichiometry N [2]: 2
Molecule: AsCas12f1 (Acidibacillus sulfuroxidans Cas12f1) (from UniProt A0A2U3D0N8 1-422) (enzyme)

B1: Nuclease inactivated or dead (d) SpCas12f1 (D228A) (enzyme, Syntrophomonas palmitatica, UniProt P0DW62 1-497, looked up)
chain: T1 sequence
notes: SpCas12f1, type V-F CRISPR-Cas nuclease of Syntrophomonas palmitatica, 497 aa, with D228A in the RuvC active site; The tag was removed at a TEV site (ENLYFQS), so a residue of the site may remain at the N-terminus; also called dCas12f1; source: E. coli Arctic Express (DE3), purified (Ni2+ HiTrap chelating, heparin, TEV cleavage, heparin); not shown: 10xHis, N-terminal, cleaved; MBP, N-terminal, …
stoichiometry N [3]: 2

B2: SpCas12f1 sgRNA T1, 18 nt spacer (structured_RNA)
RNA: GGGAUUUACUCUGUUUCGCGCGCCAGGGCAGUUAGGUGCCCUAAAAGAGCGAAGUGGCCGAAAGGAAAGGCUAACGCUUCUCUAACGCUACGGCGACCUUGGCGAAAUGCCAUCAAUACCACGCGGCCCGAAAGGGUUCGCGCGAAACUGAGUAAUGAAAGUCGCAUCUUGCGUAAGCGCGUGGAUUGAAACAGUUGACCCAACGUCGCC
binding result (dSpCas12f1 [4]): binds

B3: Sp sgRNA (18 nt spacer) + dsDNA target with PAM (mixed)
DNA 1: GCACCTTACTGCAAGGTAGCCACGTTCAGTTGACCCAACGTCGCCGGCGTGCACAATCTAGATGCATCAGCTGC
DNA 2: GCAGCTGATGCATCTAGATTGTGCACGCCGGCGACGTTGGGTCAACTGAACGTGGCTACCTTGCAGTAAGGTGC
binding result (dSpCas12f1 [5]): binds

B4: Sp sgRNA (18 nt spacer) + ssDNA target strand (mixed)
DNA: B3 DNA 2
binding result (dSpCas12f1 [6]): binds

B5: As sgRNA + ssDNA target strand (mixed)
DNA: B3 DNA 2 with G48T, C51A, G52T, T53A, G54C
binding result (dAsCas12f1 [7]): binds

B6: As sgRNA + dsDNA target with PAM (mixed)
DNA 1: B3 DNA 1 with C21G, A22T, C23A, G24T, C27A
DNA 2: B3 DNA 2 with G48T, C51A, G52T, T53A, G54C
binding result (dAsCas12f1 [8]): binds
